# In the DeepSol protein solubility set:
# Assay: soluble on expression in E. coli; label from the status in PepcDB or PDB records
row,Sequence,soluble on expression in E. coli
1,MGSDKIHHHHHHMNIQTFMLPSQKVSPELEILHADLQTEGQHPPILFLHGYTSGAWQFAQHWMPTLQANGWQSFALNLRGHGGSAGRETVTTARFLDYADDVARAIAYVRGQTDQTPILIGHSLGSVLARHYAAEHSVPGLGLLITIGMQGFMGWMMKRYPLQGMAGMMTGRPSAMFAKFGPQYDVMYAGHNKETVRGNVERLMAQPDSDKVFMDLSKLKLGLPAKSTPTFVMAGTRDPIASVESVEALGRSYAVEPVMLQDKAHDIVAGPDWNDGLQHLQAWLETAKF,not soluble
2,MGSDKIHHHHHHMKAVILAAGRGSRLQALTDERPKALVPFNGVPLLQRAIETLRRCDVSEVGIVAGYRSEMLAPFADTLFYNHRWHSSGIFSSLNCASDWLSAEPCLVSYGDIFYDSTLVSELINHPADIVLGYDPAAVRLWQQRFNDPLPDLENFRLVDGWVSAIGQTATSLEVIQGQYMGLFKVTPAGWQALKKQLQGLTPQARDQTDMTSLLGTLVSEGFPVAGVATHAPWGEIDCPSDVALYERIYPDR,not soluble
3,MIEFKNVSKHFGPTQVLHNIDLNIRQGEVVVIIGPSGSGKSTLLRCINKLEEITSGDLIVDGLKVNDPKVDERLIRQEAGMVFQQFYLFPHLTALENVMFGPLRVRGVKKEEAEKQAKALLAKVGLAERAHHYPSELSGGQQQRVAIARALAVKPKMMLFDEPTSALDPELRHEVLKVMQDLAEEGMTMVIVTHEIGFAEKVASRLIFIDKGRIAEDGSPQALIENPPSPRLQEFLQHVS,not soluble
4,MGSDKIHHHHHHMKKYLLYMVQVHLNFRRAELESLADLYNLSIDFSQYDANSPFFIVELENDQQAKDWIKRSILTRGIYEYWGQGTTLDELHKDIQRQSNFEQDLQLKFKHSTFKFEFECYKGNSKAKRVEQIETFRYLGFEGKIDMKHPQEVFTVIEEYTPISENVGGKTPTRIYFGRQVQMSNRSAMEKYDLKKRPYKGTTSFEAELSLVSANIAQVKPGTIMYDPFAGTGSFLVAGGHFGSLVIGSDIDGRMIRGKGAQVNISANFKKYGESSQFLDVLTMDFTNNALRNNLVIDTILCDPPYGIRESIKVLGAKDPERFLGKEDMEIDGEKAYLRRDYIPTKKPYALDSLLDDLLQYSSERLPIGGRLAFWMPTANDANIETIVPMHENLELKYNCVQEFNKWSRRLLVYINRGSTFNGSSNHGIKRSKDNFRERYFNNFN,not soluble
5,MGGVTSKVNVDVVQEQVKKDPVVMYTKTSCTFCNRAKDLFSDVRVAYKEVNLDTLKASQPDDYLGIVNGLVYTTRQTSVPQIFVCGRFIGGYTELDALRNSGHLFEAIAQCTGENSPKE,not soluble
6,MDILVREVDVSEYVSIVVNRDSFNTIEYFICAPFSGQRLRGTARPGQTVVFRQQNLTNVVEKLGKNSFRCIVKADELPKSFQKSQEFVVARGRFQQFLKVAEGSRLSKLEPMSDTEMASNAIKDVREMAEQDLIGSRKTPFYEMFTRFAQQKVTSSDQEDTIENLHTRNNYEDIFDVLKSNLNKNEQLNDIDGRNNQKSDKMTEVDQTDKMHLTELEVKQKV,not soluble
7,MSLARIIVVTSGKGGVGKTTSSAAIATGLAQKGKKTVVIDFDIGLRNLDLIMGCERRVVYDFVNVIQGDATLNQALIKDKRTENLYILPASQTRDKDALTREGVAKVLDDLKAMDFEFIVCDSPAGIETGALMALYFADEAIITTNPEVSSVRDSDRILGILASKSRRAENGEEPIKEHLLLTRYNPGRVSRGDMLSMEDVLEILRIKLVGVIPEDQSVLRASNQGEPVILDINADAGKAYADTVERLLGEERPFRFIEEEKKGFLKRLFGGEGHHHHHH,soluble
8,MEVQSMLLNDVKWEKPVTISLQNGAPRIFNGVYEAFDFLQHEWPARGDRAHEQALRLCRASLMGDVAGEIARTAFVAASRQAHCLMEDKAEAPNTIASGS,soluble
9,MTHALLIGNPNCGKTTLFNALTNANQRVGNWPGVTVEKKTGEFLLGEHLIEITDLPGVYSLVANAEGISQDEQIAAQSVIDLEYDCIINVIDACHLERHLYLTSQLFELGKPVVVALNMMDIAEHRGISIDTEKLESLLGCSVIPIQAHKNIGIPALQQSLLHCSQKIKPLKLSLSVAAQQILNDLENQLISKGYKNSFAYYFSRRLAEGDTLIGEKAFTESLLIKLQETEQNLDVLLADARYQKIHEIVTLVQKK,soluble
10,MAHHHHHHMAKRKYMSKVDGKINVGEKHQAKIPDLVTDENEKTNVEETQPVENVNNVNDDVRKNKKAKTEQVEETTNNAAEEQVQQEEPVETAPAHEEPAHGEEAQGEEVQGEEAQGEEVQGEEVQGEEAHEEPANDEPANDEPANDEPANEEPANEEPANEEPANEEPANEEPANEEPANEEPANE,not soluble
11,MGSDKIHHHHHHMIINNVNMVLSQEIIHGSLEVRNGVIHHINDRPSRHPGALDGEQAWLLPGLVELHTDNLDKCFTPRPGVNWPSEAAMRNHDALIISSGITTVLDAVAVGDVRDGGHRLENLRRMTDAVLYSQQHGTNRADHHLHLRCELPHQDTFPLFEQLADIPLVALASLMDHSPGQRQFSSQEKYHQYYKGKYHLNDEQMAAFEEEQLAGSRRWSQPNREAIVRLCHEKGITLASHDDATSEHITESHQHRVAIAEFPTTEIAAQQAHGVGMNVLMGAPNVICGGSHSGNVSAHHLATLGVLHILSSDYYPASLLEAAFMIAEDERNDYDLPRAIALVSNNPAQALKFDDRGCIEEGRRADLLLVKRHAPQMKLMRVWRQGVRVF,not soluble
12,MAKNAPRFVCQACGAVYPRWMGRCEACGEWNSIAEEAPAEALPKGQTGGRGGQRLSFVSLEGVGAPPPRLLTGIPELDRVAGGGLVAGSALLIGGDPGIGKSTLLLQAVAGLARGGARSVYISGEEAIDQVRLRALRLGLEKAPVDLAAATSVRDIVATLDSGEPPDVVVIDSIQTMYLDTLDSAPGTVAQVRAGSHELIRLAKRRGFVLFLVGHVTKEGQMAGPRVMEHMVDAVIYFEGERGHPFRILRAVKNRFGATDEIGVFEMSDAGLSEVPNPSALFLAERRGNVTGSCVFAGMEGTRPMLVEIQALVGPSAPGSARRAVVGWDGGRLAMVMAVLETRCGLALGGNDVYLNVAGGLRIGEPAADLAVAAALVSSFSGVPVPPDMVVFGEIGLSGEIRAVAHGDTRLKEAAKLGFDQALMPARPRDSGKRGGPGVKEGLRMREIGHLQDLVALLAPPENAGQGQRLEHHHHHH,soluble
13,MKIAIINMGNNVINFKTVPSSETIYLFKVISEMGLNVDIISLKNGVYTKSFDEVDVNDYDRLIVVNSSINFFGGKPNLAILSAQKFMAKYKSKIYYLFTDIRLPFSQSWPNVKNRPWAYLYTEEELLIKSPIKVISQGINLDIAKAAHKKVDNVIEFEYFPIEQYKIHMNDFQLSKPTKKTLDVIYGGSFRSGQRESKMVEFLFDTGLNIEFFGNAREKQFKNPKYPWTKAPVFTGKIPMNMVSEKNSQAIAALIIGDKNYNDNFITLRVWETMASDAVMLIDEEFDTKHRIINDARFYVNNRAELIDRVNELKHSDVLRKEMLSIQHDILNKTRAKKAEWQDAFKKAIDL,soluble
14,MGSDKIHHHHHHMIAGVPSVHPLPNMNHVEVKGVDLPAQIAQQVRKLINRGTLAPGLQLRQSDLADRFGISRVPVREALKLLAAEGIIEHDPNRGFFVAPLSTDEARQLYRYRFLLERELLKTVEWPDSTQMKALKAMLERLDSYLDSGQRAEWIDEYQDFYALLFDLSPDKILRREAIRLIRLTDRYRALASEVRVPGEQRTAHLEHTLLAAMSKRDRAQLIRGFEREREKILASMLARIDARGL,not soluble
15,MRAEVKEICKALHLAYIADRFEEVRFETKEQFLRDVLALELSCCQEAKQARLIKKAKFRELKWLKDYEWSGHIHWPATTSREELCDLRFLERKQNVLLLGSPGTGKTHLATALGIQACQQGHEVRFFRVADLVAQLEEALKNGTLGRLKRSLDTCELLILDELGYVPFQKQGSELLFHIIADCYERKSVMVTSNLEFGQWNRVFGDNRLTAALVDRLVHHAHILAFTGESYRLRNALSAIQPSSASGLEP,not soluble
16,MAHHHHHHMAERKVLNKYIPPDFDPDKLMESKKLLKKIEKRKNRNQNKTKKKLMNIRMMYPFTLKCNKCKTFTYVGTKFNSRVEKLKDETYLNIPIWKFYGKCQECKNEIIFKTDPKNGDYLLIAGGTRTYDAHKEQELADDYYRNSNVKDEDKIKNTEKQSYNAMLELKMNEQLEELQNMNKRHLDKFSSINKALNRLYEKSELENKENNFFMNNLDSEDEKAFFSLLNKSRSSKDHIGDNLNKYNPSNNNWVNKNIEKDNIIIEEVELDDNKNNNDEVNEYISEGEGEHSDGNNINEVNESFSDLLLKKKKNRYEKENTVKIKQGNIDTEDKPKDNQQDKTNNISFKNTISNNSSSFSNIIHKPMFNKINKETNFNFVIKKKENFQSLLSEYNSDNSNESDN,not soluble
17,MAHHHHHHMPKEVQEKDEFFYFFNHFCFYIINETKQYALSYKMNFAFYLPYGSLGVDVLKNVFDYLHYLDVPTILDIKMNDIGNTVKHYSKFIFHYLRSDSCTANIYMGTHMLRDICLDEECKRHYSTFVLIKTTNPDSHIFQNRLSLDGKEAYVVIADEAQKMAKQLHLEENGEFVGFVVGANCYDEMKKIRELFPDCYILAPGVGAQKGDLRKTLCNGYSKNYERLLINVGRAITKSGNPQQAAREYYHQIKEILAEL,not soluble
18,MKQHILVLEDANQRRTIILDEQQYSIGRHSGTSIQIHSRQASRHHATLMRKTNSKTNEECFWIIDGDLEGNKSQNGVFVNGEKRLIHELKNGDLINFGCSINALEHHHHHH,not soluble
19,MNQKLLKLENLLRFHTICRQVHSPSQRRLLAWCRHGFAPASSVWRDLLGARSWQTDMLIGSALHQHRLLVTKKEKRPPRSQLSPVKTKKEVEVWVGMTVEDLASAMAKDIDCVYEALLNTAIDVDSLEANSHLDEVWIKEVIKKAGMKLKWSKLKQERIRENKDAVRRPGTDPALLKPRSPVVTVMGHVDHGKTTLLDKLRETQVAAMEVGGITQHIGAFLVSLPSGEKITFLDTPGHAAFSAMRARGAQVTDIVVLVVAADDGVMKQTVESIQHAKDAEVPIILAINKCDKTDADPEKVKKELLAYDVVCEEYGGDVQAVHVSALTGDNLMALAEATIALAEILELKADPTGPVEGTVIESFTDKGRGPVTTAIIQRGTLRKGSILVAGKSWAKVRLIFDENGKILNEAYPSMPVGIIGWRDLPSAGDEILEVESEPRAREVIEWRKSEQKEEKGKDDLKIMEEKRREHQEAHRKAREKYGSLHWKERSYIKFLERKQQRPLKPKEKVERQSNVLPIIIKGDVDGSVEAILNLLDTYDASHECELELVHFGLGDISENDVTFAETFDGVIYGFNVEAGSAIQQSAAQKGVKIKLHKIIYHLIEDLQEELSSRLPHTLEEYPIGEASILATFTVTEGKKKIPVADCRVQKGQLERHKKFKLIRNGQVIWKGSLTSLKHHKDDISVIKTGMDCGLSLDEEKVEFKPGDQVICYEENKVPTKTSWDPGF,soluble
20,MEDHSSSIAVHKLDGDLLLRTAEIGDADMIAAYFQSNRDYLKPFEPKREEAFFSVNGWLQKLIKLNELHRMGLGYYCLLIHVDT,not soluble
21,MYTIAALYHFTRFADPADLKPALLDLCLAQGVKGTLLLAKEGINGTIAGPRAGIDAVLAHIRALPGCSDLEWKEATSDHPPFGKMKVRLKQEIVTMGQPDVDPRARVGHYVEPEDWNDLIRSDDVVLIDTRNDYEVAIGTFEGAIDPMTESFRDFPAWWEANKERFHNKRVAMFCTGGIRCEKSTNYLLGQGVEDVYHLKGGILRYLEEVPAENSTWQGECFVFDNRVSVGHGLVEGPHELCHGCRRPILPEDRNRPEYEHGVSCHLCIDETSEADKMRFRERQKQIALARARGEDHLATHLEHHHHHH,soluble
22,MGSDKIHHHHHHMLNTIGERQKQLLKLLRGSRPGLSVDELSKGLEITRNAVRQHLSSLEGAGLVTAGNTRPSGGGRPQQLYVLTELGKESFPRQYSWLAQLVLASVRREEGVENMGKRLSEIGAGIAEQIRGQYPDLNTKEEKIDKLTEVMDQLGYNAKSATLPNGEKVIEADNCVFHQMAAKDMEICHLDRGLMETFTDSKVEQHECMARGGELCRFRFVSKKE,not soluble
